Columns and labels:
[1] = biological target: T1, Y. ruckeri OmpF embedded in the outer membrane of E. coli MDS42 ΔompF cells (Yersinia ruckeri); assay: flow cytometry titration in fresh water
T1 construct: whole, on cells; Cells were fixed with PFA for flow cytometry; also called OmpF Y. ruckeri expressing strain; specific target

[2] = biological target: T2, wild-type E. coli OmpF embedded in the membrane of E. coli MDS42 cells (Escherichia coli, UniProt P02931 23-362); assay: flow cytometry titration in fresh water
T2 construct: whole, on cells
T2 sequence: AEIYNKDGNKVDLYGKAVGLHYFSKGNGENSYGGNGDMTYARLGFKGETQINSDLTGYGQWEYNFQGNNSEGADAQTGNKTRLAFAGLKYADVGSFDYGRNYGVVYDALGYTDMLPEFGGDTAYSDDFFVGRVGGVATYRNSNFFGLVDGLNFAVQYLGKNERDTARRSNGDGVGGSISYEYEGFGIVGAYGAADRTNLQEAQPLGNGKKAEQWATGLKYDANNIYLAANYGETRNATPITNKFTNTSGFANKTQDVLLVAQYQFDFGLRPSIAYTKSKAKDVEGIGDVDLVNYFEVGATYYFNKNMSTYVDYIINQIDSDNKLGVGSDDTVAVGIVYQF

[3] = biological target: T1, Y. ruckeri OmpF embedded in the outer …; assay: flow cytometry on E. coli expressing Y. ruckeri OmpF, chimera at 0.1 µM and 1 µM, PBS
[4] = biological target: T2, wild-type E. coli OmpF embedded in the …; assay: flow cytometry titration in PBS, 5 concentrations 0.001-3 µM, […]
[5] = biological target: T1, Y. ruckeri OmpF embedded in the outer …; assay: flow cytometry titration in PBS, 5 concentrations 0.001-3 µM, normalised
[6] = biological target: T3, human seroalbumin (human, UniProt P02768 25-609); assay: cross-reactivity test, yeast display flow cytometry
T3 construct: also called hSA
T3 sequence (P02768 25-609): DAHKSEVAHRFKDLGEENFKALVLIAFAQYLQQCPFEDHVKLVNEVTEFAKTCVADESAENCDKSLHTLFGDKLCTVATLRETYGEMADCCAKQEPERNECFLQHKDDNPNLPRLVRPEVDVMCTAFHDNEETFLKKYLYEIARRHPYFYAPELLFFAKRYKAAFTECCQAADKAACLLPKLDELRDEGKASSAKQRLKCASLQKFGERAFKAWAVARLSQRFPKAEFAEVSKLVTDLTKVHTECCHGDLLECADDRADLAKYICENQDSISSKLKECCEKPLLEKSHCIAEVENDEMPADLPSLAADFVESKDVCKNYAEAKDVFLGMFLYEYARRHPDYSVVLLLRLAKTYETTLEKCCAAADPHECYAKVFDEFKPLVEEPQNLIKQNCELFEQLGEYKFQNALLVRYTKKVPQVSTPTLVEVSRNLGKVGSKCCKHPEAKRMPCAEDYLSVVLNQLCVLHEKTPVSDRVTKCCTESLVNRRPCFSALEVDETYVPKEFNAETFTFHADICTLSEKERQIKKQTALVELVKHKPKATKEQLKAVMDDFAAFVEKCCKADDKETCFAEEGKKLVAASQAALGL

[7] = biological target: T4, soluble recombinant OmpF (outer membrane porin F) from Yersinia ruckeri (Yersinia ruckeri); assay: BLI, biotinylated chimera on streptavidin tips, soluble rOmpF 0.5-2.3 µM, PBS pH 7.4
T4 construct: also called rOmpF; Y. ruckeri OmpF

[8] = biological target: T5, ovalbumin (UniProt P01012 2-386); assay: cross-reactivity test, yeast display flow cytometry
T5 construct: also called ovoalbumin
T5 sequence (looked up): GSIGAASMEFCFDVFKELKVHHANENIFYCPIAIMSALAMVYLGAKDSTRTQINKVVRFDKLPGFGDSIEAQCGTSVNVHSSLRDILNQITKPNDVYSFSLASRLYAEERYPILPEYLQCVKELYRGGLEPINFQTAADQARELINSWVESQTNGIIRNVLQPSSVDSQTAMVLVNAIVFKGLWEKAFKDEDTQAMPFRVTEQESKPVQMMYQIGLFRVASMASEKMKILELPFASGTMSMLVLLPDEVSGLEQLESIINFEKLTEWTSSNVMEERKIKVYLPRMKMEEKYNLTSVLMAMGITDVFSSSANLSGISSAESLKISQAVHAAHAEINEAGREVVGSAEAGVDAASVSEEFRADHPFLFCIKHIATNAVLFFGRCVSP

B1: mHP1α-L1 chimeric protein (designed binder)
chain: MGKKTKRTADSSSSEDEEEYVVEKVLDRRMVKGQVEYLLKWKGFSEEHNTWEPEKNLDCPELISEFMKKYKKMKEGENNKPREKSEGNKRKSSFSNSADDIKSKKKREQSNDIARGFERGLEPEKIIGATDSCGDLMFLMKWKDTDEADLVLAKEANVKCPQIVIAFYEERLTWHAYPEDAENKEKESAKSGSATVKFTYQGEEKQVDISKIKMVIRMGQMILFTYDEGGGAMGRGIVSEKDAPKELLQMLEKQ
notes: also called mHP1-L1
Kd [1]: 140 nM | Kd [2]: 130 nM

B2: mHP1α-L2 chimeric protein (designed binder)
chain: MGKKTKRTADSSSSEDEEEYVVEKVLDRRMVKGQVEYLLKWKGFSEEHNTWEPEKNLDCPELISEFMKKYKKMKEGENNKPREKSEGNKRKSSFSNSADDIKSKKKREQSNDIARGFERGLEPEKIIGATDSCGDLMFLMKWKDTDEADLVLAKEANVKCPQIVIAFYEERLTWHAYPEDAENKEKESAKSGSATVKFTYQGEEKQVDISKIKYVIRFGQKIMFKYDEGGGAHGSGMVSEKDAPKELLQMLEKQ
notes: Biotinylated for flow cytometry
percentage of double positives [3]: > 75%

B3: mHP1α-R2 chimeric protein (designed binder)
chain: MGKKTKRTADSSSSEDEEEYVVEKVLDRRMVKGQVEYLLKWKGFSEEHNTWEPEKNLDCPELISEFMKKYKKMKEGENNKPREKSEGNKRKSSFSNSADDIKSKKKREQSNDIARGFERGLEPEKIIGATDSCGDLMFLMKWKDTDEADLVLAKEANVKCPQIVIAFYEERLTWHAYPEDAENKEKESAKSGSATVKFTYQGEEKQVDISKIKMVMRNGQRIRFMYDEGGGAIGLGEVSEKDAPKELLQMLEKQ
notes: also called mHP1-R2
Kd [1]: 300 nM | Kd [2]: 280 nM | Kd [4]: 82 nM | Kd [5]: 75 nM

B4: L1 engineered rcSso7d binder (designed binder)
chain: ATVKFTYQGEEKQVDISKIKMVIRMGQMILFTYDEGGGAMGRGIVSEKDAPKELLQMLEKQ
notes: also called clone L1
binding result [6]: no binding (tested: 1 µM)

B5: DBP1-L1 chimeric protein (designed binder)
chain: MADLPQKVSNLSINNKENGGGGGKSSYVPPHLRSRGKPSFERRSPKQKDKVTGGDFFRRAGRQTGNNGGFFGFSKERNGGTSANYNRRGSSNYKSSGNRWVNGKHIPGPKNAKLQKAELFGVHDDPDYHSSGIKFDNYDNIPVDASGKDVPEPILGGRTRGGGGFFNSRNNGSRDYRKHGGNGSFGSTRPRNTGTSNWGSIGGGFRNDNEKNGYGNSNASWWGSATVKFTYQGEEKQVDISKIKMVIRMGQMILFTYDEGGGAMGRGIVSEKDAPKELLQMLEKQ
notes: Biotinylated and immobilised on streptavidin tips for BLI; biotinylated for microscopy and flow cytometry
Kd [7]: 119 nM | percentage of double positives [3]: > 75%

B6: DBP1-L2 chimeric protein (designed binder)
chain: MADLPQKVSNLSINNKENGGGGGKSSYVPPHLRSRGKPSFERRSPKQKDKVTGGDFFRRAGRQTGNNGGFFGFSKERNGGTSANYNRRGSSNYKSSGNRWVNGKHIPGPKNAKLQKAELFGVHDDPDYHSSGIKFDNYDNIPVDASGKDVPEPILGGRTRGGGGFFNSRNNGSRDYRKHGGNGSFGSTRPRNTGTSNWGSIGGGFRNDNEKNGYGNSNASWWGSATVKFTYQGEEKQVDISKIKYVIRFGQKIMFKYDEGGGAHGSGMVSEKDAPKELLQMLEKQ
notes: Biotinylated and immobilised on streptavidin tips for BLI
Kd [7]: 26 nM | percentage of double positives [3]: > 75%

B7: L2 engineered rcSso7d binder (designed binder)
chain: ATVKFTYQGEEKQVDISKIKYVIRFGQKIMFKYDEGGGAHGSGMVSEKDAPKELLQMLEKQ
notes: also called clone L2
binding result [8]: no binding (tested: 1 µM) | binding result [6]: no binding (tested: 1 µM)

Source: patent EP4480961A1 (Consejo Superior De Investigaciones Científicas, dated 2024)
